This note sets out measurements from patent publication US20250042992A1 (University of California, published 2025).

In this assay the target is T1, monkey DLK1 fused to mGFP, overexpressed on HEK293T cells (monkey (crab-eating macaque), UniProt A0A2K5TMQ6 24-383).
T1 construct: whole, on cells; also called crab-eating macaque DLK1; not shown: mGFP fluorescent protein fused to DLK1
T1 sequence: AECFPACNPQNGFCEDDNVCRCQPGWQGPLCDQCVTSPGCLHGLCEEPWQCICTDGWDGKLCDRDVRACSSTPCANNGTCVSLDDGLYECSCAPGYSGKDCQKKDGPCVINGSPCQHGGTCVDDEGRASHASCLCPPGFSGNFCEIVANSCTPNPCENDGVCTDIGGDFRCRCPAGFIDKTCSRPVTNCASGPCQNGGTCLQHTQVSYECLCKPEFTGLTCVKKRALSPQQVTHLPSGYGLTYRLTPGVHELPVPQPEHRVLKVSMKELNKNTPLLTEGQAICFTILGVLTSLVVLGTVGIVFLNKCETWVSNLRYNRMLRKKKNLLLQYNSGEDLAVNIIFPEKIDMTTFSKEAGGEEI
In words: KinExA on HEK293T DLK1mGFP Monkey mass pop cells detached by Versene; Error% 3.92; 95% CI 5.15nM - 17.83nM; equilibrium curves 400pM, 50nM. (In general: Kinetic exclusion samples the free partner from a solution-phase mixture.)

B1: humanized anti-DLK1 antibody 04-0547-h2 (IgG1) (antibody, V domains shown)
VH: EVQLVESGGGLVQPGGSLRLSCAASGFSISDYYMAWVRQAPGKGLEWVANINYDGTNTYYADSVKGRFTISRDNSKNTLYLQMNSLRAEDTAVYYCVRSYYYYGMEYWGQGTTVTVSS
VL: DIQMTQSPSSLSASVGDRVTITCRASHDVSTAVAWYQQKPGKAPKLLIYSASYRYTGVPSRFSGSGSGTDFTLTISSLQPEDFATYYCQQHYRIPLTFGQGTKLEIK
notes: human kappa (P01834) and human IgG1 (P01857) constant regions
B1 gave a Kd of 9.89 nM.

As usually defined, the Kd is the constant that tells how readily two partners part at equilibrium.
